First the molecules themselves.
B1: Transcription elongation factor A N-terminal and central domain-containing protein, residues 30 to 77; numbered along this chain, Q8N8B7 (parent)
chain: LTELETIYVTKEHLQETDVVRAVYRVLKNCPSVALKKKAKCLLSKWKA

Here are results for 54 variants from the Human Domainome abundance scans (Beltran et al. 2025).

± gives the uncertainty stated by the source.

In this data set the parent is B1. The experiment in a line: abundance fitness (aPCA) (normalised: wild type 0, dead -1); higher = more abundant; growth selection in yeast, the domain comes from the species named. Particulars: Homo sapiens.
Regarding LTELETIYVTKEHLQETDVVRAVYRVLKNCPSRALKKKAKCLLSKWKA [V33R], the abundance fitness was 0.155 ± 0.064. On to LTELETIYVTKEHLQETDVVRAVYRVLKNCPSCALKKKAKCLLSKWKA [V33C], for which the abundance fitness is 0.041 ± 0.12. For LTELETIYVTKEHLQETDVVRAVYRVLKNCPSVALKKKAKCLLSKWFA [K47F] the value was 0.101 ± 0.44. With LTELETIYVTKEHLQETDVVRAVYRVLKNCPSVALKKKAKCLLSKWLA [K47L], the abundance fitness was -0.508 ± 0.13. For the variant LTELETIYVTKEHLQETDVVRAVYRVLKNCPSVALKKKAKGLLSKWKA [C41G], the abundance fitness was found to be 0.025 ± 0.083.

LTELETIYVTKEHLQETDVVRAVYRVLKNCPSVALKKKAKYLLSKWKA [C41Y]: the abundance fitness is -0.558 ± 0.16. With LTELETIYVTKEHLQETDVVRAVYRVLKNCPSVALIKKAKCLLSKWKA [K36I], the abundance fitness is -0.152 ± 0.15. With LTELETIYVTKEHLQETDVVRAVYRVLKNCPSVALFKKAKCLLSKWKA [K36F], the abundance fitness is -0.007 ± 0.13. In the case of LVELETIYVTKEHLQETDVVRAVYRVLKNCPSVALKKKAKCLLSKWKA [T2V] it was -0.813 ± 0.15; in that of LIELETIYVTKEHLQETDVVRAVYRVLKNCPSVALKKKAKCLLSKWKA [T2I], -0.369 ± 0.13; in that of LRELETIYVTKEHLQETDVVRAVYRVLKNCPSVALKKKAKCLLSKWKA [T2R], 0.011 ± 0.08. Turning to LTELETIYVTKEHLQETDVVRAVYRVLKNCPSVALKKWAKCLLSKWKA [K38W], the abundance fitness is -0.252 ± 0.12. Take LTELETIYVTKEHLQETDVVRAVYRVLKNCPSVALKKGAKCLLSKWKA [K38G]: the abundance fitness was -0.209 ± 0.074. Take LTELETIYVTKEHLQETDVVRAVARVLKNCPSVALKKKAKCLLSKWKA [Y24A]: the abundance fitness came to 0.019 ± 0.078. In the case of LTELETIYVTKEHLQETDVVRAVYRVLKNCPSVDLKKKAKCLLSKWKA [A34D] it was 0.097 ± 0.13; in that of LTELETIYVTGEHLQETDVVRAVYRVLKNCPSVALKKKAKCLLSKWKA [K11G], -0.022 ± 0.066; in that of LTELETIYQTKEHLQETDVVRAVYRVLKNCPSVALKKKAKCLLSKWKA [V9Q], 0.265 ± 0.096. LTELETIYGTKEHLQETDVVRAVYRVLKNCPSVALKKKAKCLLSKWKA [V9G]: the abundance fitness came to 0.061 ± 0.072.

In the case of LTELETIYVTKEHLQETDVVRVVYRVLKNCPSVALKKKAKCLLSKWKA [A22V], the abundance fitness was -0.37 ± 0.079. For LTELETIYVTKEHLQETDVVREVYRVLKNCPSVALKKKAKCLLSKWKA [A22E] the value was -0.328 ± 0.09; for LTELETIYVTKEHLQETDVVRAVYRVLKNCPSVALKKKAKCLLDKWKA [S44D], -0.537 ± 0.18.

With LTELETIYVTKEHLQETDVVRAVYRVLKNCPSVALKKKAKCLLMKWKA [S44M], the abundance fitness was -0.148 ± 0.15. In the case of LTELETIYVTKEHLQETDVVRAVYRVLKNCPSVAFKKKAKCLLSKWKA [L35F] it was -0.293 ± 0.28; in that of LTELETIYVTKEHLQETDVVRAVYRVLKMCPSVALKKKAKCLLSKWKA [N29M], 0.052 ± 0.1; in that of LTELETIYVTKEHLQETDVVRAVYRVLKECPSVALKKKAKCLLSKWKA [N29E], -0.536 ± 0.12.

Take LTESETIYVTKEHLQETDVVRAVYRVLKNCPSVALKKKAKCLLSKWKA [L4S]: the abundance fitness was determined as 0.216 ± 0.071. For LTELETIYVTKEHLQETDIVRAVYRVLKNCPSVALKKKAKCLLSKWKA [V19I] the value was -0.133 ± 0.16. In the case of LTELETIYVTKEHLQETDGVRAVYRVLKNCPSVALKKKAKCLLSKWKA [V19G], the abundance fitness is -0.094 ± 0.082.

As to LTELETIYVTKEHLQETDVHRAVYRVLKNCPSVALKKKAKCLLSKWKA [V20H], the abundance fitness was -0.491 ± 0.24. With LTELETIYVTKEHLQETDVVRAVYRVLKNCPSVALKKKAKCLQSKWKA [L43Q], the abundance fitness was -0.527 ± 0.14.

Take LTELETIYVTKEHLQETDVVRAVYRVLKNCPSVALKKKAKCLFSKWKA [L43F]: the abundance fitness came to 0.047 ± 0.12. LTELETIYVTKEHLQETDVVRAVYRVLKNCPSVALKKKAKCLCSKWKA [L43C]: the abundance fitness was -0.647 ± 0.21.

As to LTELETIYVTKEHLQETEVVRAVYRVLKNCPSVALKKKAKCLLSKWKA [D18E], the abundance fitness is -0.382 ± 0.1.

Regarding LTELETIYVTKEHLQETQVVRAVYRVLKNCPSVALKKKAKCLLSKWKA [D18Q], the abundance fitness was -0.07 ± 0.12. In the case of LTELETIYVTKEHLQETDVVRAVYRALKNCPSVALKKKAKCLLSKWKA [V26A] it was 0.154 ± 0.076. For LTELETIYVTKEHLQETDVVRAVYRWLKNCPSVALKKKAKCLLSKWKA [V26W], the abundance fitness was 0.447 ± 0.11. Consider LTELETIYVTKEHLQETDVVRAVYRVLKNCPCVALKKKAKCLLSKWKA [S32C], for which the abundance fitness came to 0.367 ± 0.12. With LTELETIYVTKEFLQETDVVRAVYRVLKNCPSVALKKKAKCLLSKWKA [H13F], the abundance fitness was -0.428 ± 0.091. Turning to LTELETIYVTKERLQETDVVRAVYRVLKNCPSVALKKKAKCLLSKWKA [H13R], the abundance fitness is -0.126 ± 0.066. In the case of LTELETIYVTKEHLQETDVVRAVYRVLLNCPSVALKKKAKCLLSKWKA [K28L] it was -0.237 ± 0.077; in that of LTELETIYVTKHHLQETDVVRAVYRVLKNCPSVALKKKAKCLLSKWKA [E12H], -0.606 ± 0.17.

For the variant LTELETAYVTKEHLQETDVVRAVYRVLKNCPSVALKKKAKCLLSKWKA [I7A], the abundance fitness worked out at 0.131 ± 0.076. For LTELETIYVTKEHLQETDVVRAVYRVLKNCPSVALKKKAKCLLSEWKA [K45E] the value was -0.748 ± 0.13; for LTELETIYVTKEHLQETDVVRAEYRVLKNCPSVALKKKAKCLLSKWKA [V23E], -0.584 ± 0.11. For LTELETIYVTKEHLQETDVVRAVYAVLKNCPSVALKKKAKCLLSKWKA [R25A] the value was -0.326 ± 0.087; for LTELETIYVTKEHRQETDVVRAVYRVLKNCPSVALKKKAKCLLSKWKA [L14R], 0.21 ± 0.057; for LTELETIYVTKEHTQETDVVRAVYRVLKNCPSVALKKKAKCLLSKWKA [L14T], 0.328 ± 0.087. For LTELETIYVTKEHLQETDVVRAVYRVGKNCPSVALKKKAKCLLSKWKA [L27G] the value was -0.88 ± 0.094; for LTELETIYVTKEHLQETDVVRAVYRVVKNCPSVALKKKAKCLLSKWKA [L27V], -0.445 ± 0.091; for LTELELIYVTKEHLQETDVVRAVYRVLKNCPSVALKKKAKCLLSKWKA [T6L], -0.616 ± 0.091. LTELEQIYVTKEHLQETDVVRAVYRVLKNCPSVALKKKAKCLLSKWKA [T6Q]: the abundance fitness amounted to 0.08 ± 0.13. For LTELESIYVTKEHLQETDVVRAVYRVLKNCPSVALKKKAKCLLSKWKA [T6S] the value was 0.12 ± 0.082; for LTELETIYVTKEHLQEGDVVRAVYRVLKNCPSVALKKKAKCLLSKWKA [T17G], -0.092 ± 0.072; for LTELETIYVTKEHLQEHDVVRAVYRVLKNCPSVALKKKAKCLLSKWKA [T17H], -0.37 ± 0.32.
